Results published in patent US20250353894A1 (UNIVERSITAT ULM, published 2025).

Legend:
[1] = molecular target: T1, complement protein C3b (UniProt P01024 749-1663; P01024 23-667); experiment: not named in the sentence (SPR on C3b by Table 1)
T1 construct: also called factor C3b
Protocol: (§1) A surface plasmon resonance (SPR)-based assay (Schmidt et al. (2013), Journal of Immunology 190:5712-5721) was used to determine the affinity of the engineered complement inhibitors for the key complement protein C3b. 1940 response units […] of C3b were coupled to the chip. The samples were run at 25 μl/min in a concentration series with the highest and the lowest concentrations being assayed in duplicate to probe reproducibility. To get an estimation of the KD value for other proteins the plot of response (during steady state) against the assayed concentration was fitted to a 1:1 steady state affinity model.

[2] = molecular target: T1, complement protein C3b; experiment: SPR, C3b coupled to chip, 1:1 steady state affinity model
Protocol: as §1

T1 sequence (P01024 749-1663 limits assumed, chain 1 of 2): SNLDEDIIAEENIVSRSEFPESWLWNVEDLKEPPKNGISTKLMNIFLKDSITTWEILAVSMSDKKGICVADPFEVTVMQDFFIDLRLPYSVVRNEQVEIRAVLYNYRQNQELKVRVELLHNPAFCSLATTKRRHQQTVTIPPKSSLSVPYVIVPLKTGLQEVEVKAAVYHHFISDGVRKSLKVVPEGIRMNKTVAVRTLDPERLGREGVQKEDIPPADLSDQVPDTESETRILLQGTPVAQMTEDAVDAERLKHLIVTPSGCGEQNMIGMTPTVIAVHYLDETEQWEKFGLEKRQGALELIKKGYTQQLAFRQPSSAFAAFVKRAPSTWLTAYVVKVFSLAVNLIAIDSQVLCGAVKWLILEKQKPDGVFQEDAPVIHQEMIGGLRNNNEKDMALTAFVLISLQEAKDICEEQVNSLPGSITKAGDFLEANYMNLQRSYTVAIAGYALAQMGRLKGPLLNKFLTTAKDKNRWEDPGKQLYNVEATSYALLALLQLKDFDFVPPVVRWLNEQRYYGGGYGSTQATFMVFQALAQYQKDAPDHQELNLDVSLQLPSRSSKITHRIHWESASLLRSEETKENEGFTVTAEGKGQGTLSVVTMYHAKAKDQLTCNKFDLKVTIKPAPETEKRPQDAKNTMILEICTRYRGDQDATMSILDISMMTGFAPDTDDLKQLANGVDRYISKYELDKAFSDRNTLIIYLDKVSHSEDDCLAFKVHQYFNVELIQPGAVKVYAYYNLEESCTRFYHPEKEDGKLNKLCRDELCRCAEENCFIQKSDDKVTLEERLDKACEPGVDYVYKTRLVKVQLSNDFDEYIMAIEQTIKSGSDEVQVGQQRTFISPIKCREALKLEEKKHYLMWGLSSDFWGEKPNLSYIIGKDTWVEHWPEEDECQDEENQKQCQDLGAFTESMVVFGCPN
T1 sequence (P01024 23-667 limits assumed, chain 2 of 2): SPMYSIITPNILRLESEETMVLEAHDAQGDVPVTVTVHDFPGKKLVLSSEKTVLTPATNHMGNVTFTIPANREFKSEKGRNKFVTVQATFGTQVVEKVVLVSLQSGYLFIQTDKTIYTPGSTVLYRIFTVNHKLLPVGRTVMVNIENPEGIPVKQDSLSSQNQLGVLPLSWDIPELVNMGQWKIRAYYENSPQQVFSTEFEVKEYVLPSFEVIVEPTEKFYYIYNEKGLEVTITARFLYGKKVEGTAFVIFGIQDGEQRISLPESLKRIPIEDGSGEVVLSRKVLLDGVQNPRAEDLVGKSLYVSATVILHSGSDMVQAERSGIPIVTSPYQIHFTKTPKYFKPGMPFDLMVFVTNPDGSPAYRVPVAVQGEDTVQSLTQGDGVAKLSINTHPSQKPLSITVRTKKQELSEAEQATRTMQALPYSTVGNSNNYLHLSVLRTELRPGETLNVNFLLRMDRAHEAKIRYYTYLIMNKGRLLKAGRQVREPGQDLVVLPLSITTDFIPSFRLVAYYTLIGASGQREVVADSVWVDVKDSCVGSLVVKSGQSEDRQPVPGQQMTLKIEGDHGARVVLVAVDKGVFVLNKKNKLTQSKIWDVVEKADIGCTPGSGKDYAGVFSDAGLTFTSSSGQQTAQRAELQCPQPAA

B1: CR1(1-3)FH(19-20)CR1(15-17) (other)
chain: QCNAPEWLPFARPTQLTDEFEFPIGTYLNYECRPGYSGRPFSIICLKNSVWTGAKDRCRRKSCRNPPDPVNGMVHVIKGIQFGSQIKYSCTKGYRLIGSSSATCIISGDTVIWDQETPICDRIPCGLPPTITNGDFISTNRENFHYGSVVTYRCNPGSGGRKVFELVGEPSIYCTSNDDQVGIWSGPAPQCIIGGGGGGGGGGGGGGKCGPPPPIDNGDITSFPLSVYAPASSVEYQCQNLYQLEGNKRITCRNGQWSEPPKCLHPCVISREIMENYNIALRWTAKQKLYSRTGESVEFVCKRGYRLSSRSHTLRTTCWDGKLEYPTCAGGGGGGGHCQAPDHFLFAKLKTQTQASDFPIGTSLKYECRPEYYGRPFSITCLDNLVWSSPKDVCKRKSCKTPPDPVNGMVHVITDIQVGSRIQYSCTTGHRLIGHSSAECILSGNTAHWSTKPPICQRIPCGLPPTIANGDFISTNRENFHYGSVVTYRCNLGSRGRKVFELVGEPSIYCTSNDDQVGIWSGPAPQCII
notes: Multi-domain fusion polypeptide produced in Pichia pastoris
Kd [1]: 40 nM | Kd [2]: 40.6 nM

B2: FH(19-20) (other)
chain: KCGPPPPIDNGDITSFPLSVYAPASSVEYQCQNLYQLEGNKRITCRNGQWSEPPKCLHPCVISREIMENYNIALRWTAKQKLYSRTGESVEFVCKRGYRLSSRSHTLRTTCWDGKLEYPTCA
notes: also called CCPs 19 and 20 of Factor H
Kd [2]: 4670 nM

B3: DAF(1-4)FH(19-20) short linker (other)
chain: DCGLPPDVPNAQPALEGRTSFPEDTVITYKCEESFVKIPGEKDSVICLKGSQWSDIEEFCNRSCEVPTRLNSASLKQPYITQNYFPVGTVVEYECRPGYRREPSLSPKLTCLQNLKWSTAVEFCKKKSCPNPGEIRNGQIDVPGGILFGATISFSCNTGYKLFGSTSSFCLISGSSVQWSDPLPECREIYCPAPPQIDNGIIQGERDHYGYRQSVTYACNKGFTMIGEHSIYCTVNNDEGEWSGPPPECRGPGGGKCGPPPPIDNGDITSFPLSVYAPASSVEYQCQNLYQLEGNKRITCRNGQWSEPPKCLHPCVISREIMENYNIALRWTAKQKLYSRTGESVEFVCKRGYRLSSRSHTLRTTCWDGKLEYPTCAKR
notes: Fusion protein; the two domains are joined directly; also called DAF(1-4)FH(19-20)-SL
Kd [2]: 125 nM

B4: DAF(1-4)FH(19-20)CR1(15-17) (other)
chain: DCGLPPDVPNAQPALEGRTSFPEDTVITYKCEESFVKIPGEKDSVICLKGSQWSDIEEFCQRSCEVPTRLNSASLKQPYITQNYFPVGTVVEYECRPGYRREPSLSPKLTCLQNLKWSTAVEFCKKKSCPNPGEIRNGQIDVPGGILFGATISFSCNTGYKLFGSTSSFCLISGSSVQWSDPLPECREIYCPAPPQIDNGIIQGERDHYGYRQSVTYACNKGFTMIGEHSIYCTVNNDEGEWSGPPPECRGGGGGGGGGGGGGGGKCGPPPPIDNGDITSFPLSVYAPASSVEYQCQNLYQLEGNKRITCRNGQWSEPPKCLHPCVISREIMENYNIALRWTAKQKLYSRTGESVEFVCKRGYRLSSRSHTLRTTCWDGKLEYPTCAGGGGGGGHCQAPDHFLFAKLKTQTQASDFPIGTSLKYECRPEYYGRPFSITCLDNLVWSSPKDVCKRKSCKTPPDPVNGMVHVITDIQVGSRIQYSCTTGHRLIGHSSAECILSGNTAHWSTKPPICQRIPCGLPPTIANGDFISTNRENFHYGSVVTYRCNLGSRGRKVFELVGEPSIYCTSNDDQVGIWSGPAPQCII
notes: Multi-domain fusion polypeptide produced in Pichia pastoris; also called triple I; triple-I
Kd [1]: 20 nM | Kd [2]: 22.8 nM

B5: CR1(15-17) (receptor)
chain: not shown
notes: Produced in Pichia pastoris; also called CCPs 15 to 17 of human CR1
Kd [2]: 954 nM

B6: DAF(1-4) (other)
chain: DCGLPPDVPNAQPALEGRTSFPEDTVITYKCEESFVKIPGEKDSVICLKGSQWSDIEEFCQRSCEVPTRLNSASLKQPYITQNYFPVGTVVEYECRPGYRREPSLSPKLTCLQNLKWSTAVEFCKKKSCPNPGEIRNGQIDVPGGILFGATISFSCNTGYKLFGSTSSFCLISGSSVQWSDPLPECREIYCPAPPQIDNGIIQGERDHYGYRQSVTYACNKGFTMIGEHSIYCTVNNDEGEWSGPPPECR
notes: Produced in Pichia pastoris; also called soluble DAF; sDAF
Kd [2]: 11500 nM

B7: DAF(1-4)FH(19-20) long linker (other)
chain: DCGLPPDVPNAQPALEGRTSFPEDTVITYKCEESFVKIPGEKDSVICLKGSQWSDIEEFCQRSCEVPTRLNSASLKQPYITQNYFPVGTVVEYECRPGYRREPSLSPKLTCLQNLKWSTAVEFCKKKSCPNPGEIRNGQIDVPGGILFGATISFSCNTGYKLFGSTSSFCLISGSSVQWSDPLPECREIYCPAPPQIDNGIIQGERDHYGYRQSVTYACNKGFTMIGEHSIYCTVNNDEGEWSGPPPECRGGGGGGGGGGGGGGGKCGPPPPIDNGDITSFPLSVYAPASSVEYQCQNLYQLEGNKRITCRNGQWSEPPKCLHPCVISREIMENYNIALRWTAKQKLYSRTGESVEFVCKRGYRLSSRSHTLRTTCWDGKLEYPTCA
notes: Fusion protein with an oligo-glycine linker; also called DAF(1-4)FH(19-20)-LL
Kd [2]: 175 nM
